Assay results reported in PMC10308935 (Journal of Virology, 2023).

Tests used:
[1] = target: SARS-CoV-2 Omicron BA.2 spike receptor-binding domain (SARS-CoV-2 Omicron BA.2, strain); assay: BLI
[2] = target: SARS-CoV-2 Omicron BA.5 spike receptor-binding domain (SARS-CoV-2 Omicron BA.5, N440K | L452R | F486V); assay: BLI

B1: MO1 monoclonal antibody (recombinant human IgG) (antibody, V domains shown)
VH: EVQLVESGGGMVQPGRSLRLSCAASGFTFDDYAMHWVRQIPGKGLEWVSGISWNSGDIGYADSVKGRFTISRDNAKNSLHLQMNSLRAEDTALYYCAKDKTYDSPGYFLNSFDYWGQGTLVTVSS
VL: DIQMTQSPSSLSASVGDRVTITCRASQGISSYLVWYQQKPGKAPKFLIYAASTLQSGVPSRFSGSGSGTDFTLTISSLQPEDFATYYCQQLYSYPITFGQGTRLEIK
Kd [1]: 3.3 nM | Kd [2]: 11 nM
